According to patent publication US8268585B2:

molecular target: Dyed casein

Row | activity toward dyed casein, 50° C., arbitrary units/mg (arbitrary units/mg) | Molecule
1 | 0 | 43 kD endoglucanase (pI 4.2), C1-EG6, Family 6, Chrysosporium lucknowense (enzyme) QASAGCASAVTLDASTNVFQQYTLHPNNFYRAEVEAAAEAISDSALAEKARKVADVGTFLWLDTIENIGRLEPALEDVPCENIVGLVIYDLPGRDCAAKASNGELKVGELDRYKTEYIDKIAEILKAHSNTAFALVIEPDSLPNLVTNSDLQTCQQSASGYREGVAYALKQLNLPNVVMYIDAGHGGWLGWDANLKPGAQELASVYKSAGSPSQVRGISTNVAGWNAWDQEPGEFSDASDAQYNKCQNEKIYINTFGAELKSAGMPNHAIIDTGRNGVTGLRDEWGDWCNVNGAGFGVRPTANTGDELADAFVWVKPGGESDGTSDSSAARYDSFCGKPDAFKPSPEAGTWNQAYFEMLLKNANPSF
2 | 0 | 25 kD endoglucanase (pI 4.1), C1-EG5, Family 45, Chrysosporium lucknowense (enzyme) QLSGSGQTTRYWDCCKPSCAWPGKGPSSPVQACDKNDNPLNDGGSTRSGCDAGGSAYMCSSQSPWAVSDELSYGWAAVKLAGSSESQWCCACYELTFTSGPVAGKKMIVQATNTGGDLGDNHFDLAIPGGGVGIFNACTDQYGAPPNGWGDRYGGIHSKEECESFPEALKPGCNWRFDWFQNADNPSVTFQEVACPSELTSKSGCSR

Row | Molecule | activity toward dyed casein, 50° C., arbitrary units/mg (arbitrary units/mg)
3 | 55 kD cellobiohydrolase (pI 4.4), CBH1, Chrysosporium lucknowense (enzyme) | 0
